Measurements taken from the DeepSol protein solubility set.

Assay: soluble on expression in E. coli; label from the status in PepcDB or PDB records

| Sequence | soluble on expression in E. coli |
| --- | --- |
| MGSDKIHHHHHHMSVVDPSLIERIIRDDVRAMGAYHVPDSHGLVKLDAMENPYRLPPALRSELAARLGEVALNRYPVPSSEALRAKLKEVMQVPAGMEVLLGNGSDEIISMLALAAARPGAKVMAPVPGFVMYAMSAQFAGLEFVGVPLRADFTLDRGAMLAAMAEHQPAIVYLAYPNNPTGNLFDAADMEAIVRAAQGSVCRSLVVVDEAYQPFAQESWMSRLTDFGNLLVMRTVSKLGLAGIRLGYVAGDPQWLEQLDKVRPPYNVNVLTEATALFALEHVAVLDEQAAQLRAERSRVAEGMAAHGGVTVFPSAANFLLARVPDAAQTFDRLLARKVLIKNVSKMHPLLANCLRVTVSTPEENAQFLEAFAASLQD | not soluble |
| MSLDTIKVGFNIPLTGDIPKVGESSKFAAEILKGEINAAGGLKVGDKTYQLEFIYEDNESKAESATATALKLITQDGVLAIIGPQSSKQAIPAGQVCNDNKTPMISPWSTNPKTTENRPYVFRACFLDPFQGPVAAKFVTEEFKAKKAAVLYDIASDYPKGLAEFFKDAFEKIHGPGSVVAFETFTTKDKDFSAQLTKIVASGADVLFTPQYYDEVPLIVKQAQELGWKKPIMGSDSWGSAELMKLCGDACKGYCFSTHYAAAGAKGATKEFIDKYNTKYGYVPDDVAALTWDAINLLFTAVKNTGGLSGNLDKDRDAIKDKLTQVKDFEGITGKMTFAPGGNPTKCAVVVKISDKGEFEFFKSEGHHHHHH | soluble |
| MTVFTPRTDCEVAVIGAGPFGLAAASALKGAGVDALTLGGAMSFWRDHMPRGMRLRSPWHATYIGHTKGPLSLDSYAKVLGISPREPLLLENFVDYGLWIQAQAVPDLDTRKVDRVEKANGGFRLALADGNAIKARRVVVATGLMNQQLIPAVFDGIPRELVSHASEHTGYEAFRGKRVAVIGRGQSACESAVLLKRNGAEVDLVCHGDIHWLGYRALSGKQGWSLRDFLSERLASPSRVGPFPISWLVEVPGVVHRFPEPARAGLNRRSLGAGATGWLKPDFDGIEIRAGSRIISASARDNGIELRFEKDFASFDHVVLGTGYRIDIAKLGLFAPAMLAAIARREGLPLLSAGFESSIPGLHFVGASAVGSFGPLMRFTAGTPFAARTVARFIQRAKDRRYTAALEHHHHHH | not soluble |
| MSLDSRKPGHRPVTMRDVAKAAGVSRMTVSRALKKDSPISSETRERILKVVKDMNYVPDQVAGSLTTKRSGFVGLLLPSLNNLHFAQTAQSLTDVLEQGGLQLLLGYTAYSPEREEQLVETMLRRRPEAMVLSYDGHTEQTIRLLQRASIPIVEIWEKPAHPIGHTVGFSNERAAYDMTNALLARGFRKIVFLGEKDDDWTRGAARRAGFKRAMREAGLNPDQEIRLGAPPLSIEDGVAAAELILQEYPDTDCIFCVSDMPAFGLLSRLKSIGVAVPEQVSVVGFGNFEVSRFASPEISTVRVDPIAIGRETGSLILRLLDPKQRSPQTAQHITLPPVLEFRPSLKNEGHHHHHH | soluble |
| MSLSMITLWGRNNSTNVKKVLLTLEELELPYEQILAGREFGINHDADFLAMNPNGLVPLLRDDESDLILWESNAIVRYLAAQYGQKRLWIDSPARRAEAEKWMDWANQTLSNAHRGILMGLVRTPPEERDQAAIDASCKECDALFALLDAELAKVKWFSGDEFGVGDIAIAPFIYNLFNVGLTWTPRPNLQRWYQQLTERPAVRKVVMIPVSEGHHHHHH | soluble |
| QTTKRIRDQEKATALQTAEMVAEAPMTAAALESGKKQKELQSYTKRVQKITGTEFVVVMDMNGIRKTHPDPSKIGKKFRGGDESEVLKGHVHISTASGTLGKSQRAFVPVYAENGKQVGAVAVGITVNEIDEVISHSLRP | not soluble |
| MRRLVLLLALCFSCSFAQYGLYGSGYNGYGGYGSGYGTGYGMGYGMGYPMNPYMNQVYGYGSNPMMSGGGGMYGAGGCMDLSPQCSVWASTGQCSTNPMMMRQTCAMSCGTCSTGVGALGSMGSYNPFGGYGGMGYPQAGLLDPLAQFIGRSIYETGILRQPTPSSSSKSIGILTKAKSEQLPSR | not soluble |
| VKSNKGFEAIAWDPLRQRLIIGEERPPKLYTWNTDGRSPLKGEKQPLPSDELDLRNLSALGVDPRTGHLLVLSADSNMLLELDEQGQQVSFMTLLGGFNGLE | not soluble |
| KEKIAILVDVQNVYYTCREAYRSNFDYNQFWYVATQEKEVVSAKAYAIASNDPKQRQFHHILRGVGFEVMLKPYIQRRDGSAKGDWDVGITLDAIEIAPDVDRVILVSGDGDFSLLVERIQQRYNKKVTVYGVPRLTSQTLIDCADNFVAIDDDFL | not soluble |
| MKFYEEKIDSKRVFEGKMISVRVDRVRLPDGRESTREVVDHPGAVVIVPVLGGKILFVEQYRYPIEQVLLELPAGKLDPGESPEECAKRELEEETGYRAKKLSYLGKIFTTPGFTTEVIHIFAAEDLEKTSQNTDPDEFIEVKEVPIEEALSLLKNAEIEDSKTICALTRFFFAKGVIR | soluble |
| MGSDKIHHHHHHMGTAKGNITNWTQYNQVLTQRGSLTFWMDDAAIKHWYNQHPSGRQGRSNTYSDSAISTALMIKGVFKLPLRALYGFINSLFRLMDVDLKSPDYSCISKRAKTVEVNYRLRSKGPARHILIDATGLKVFGEGEWKIRKHGKEKRRIWRKMHLAVDADTREIVSAVASLDNVHNSEVIPTLINPLRCKIKQVSADGAYDTKHCYAVLQRKGITAIIPSRKNAGYRRGEQPRNEAVDALKERSVSLVEA | not soluble |
| MAKPSTSLLKRRLDIAEIVRKNGEIKVDDLAEMLSVSGVTIRNDLNYLEQQGYLKRSFGGAIYTAQPVRAAVSHEVVQSQALEHSVELELAKQVARLVCDDDTVFLGAGEVLRKALPFLGDYRDLCLIINDLSHVAPARDYIDGEIVLLGGVLGHSGQALGGEIAIQSLQQFQPSCCLVMVDHISEDGTLNVKNESAAALLSECLRLSGQSIAVVAQRPIHDVARYPVGKLNTLSAIITPQIVAAEYHSRFLADGLTNSYTNNECLTWINPTLHQARLEHHHHHH | not soluble |
| AHHHHHHGSIVPALIGSLPRPIGLAKKLEQYYIGRLDERKLEEAYREYTRRAFEKLRDAKIKVITDGLYRWDDIFNPFIRFIDGIEVNGLFKFYENNFFYRSPVVRGEIALKENPIPEWISIAQEIKEDVYPEATLKAVLPGPVTLAYHSINEYYKTLTDLAEAYAQVIGELIKELDVKIVELQEPSLAAEISEATKNIEDRVDKEVAKNIIEDLGRIKKLWVVTYFGTPQVLPEGVILNVDLIEGSVPEEYSGEIGLGIVDARTTKMERADRLRDKIRKYLAKFETIYVTPNTLLDFLPESVAWKKLRLLGRLGGE | not soluble |
| MAHHHHHHMMNTSLLGQDVDEIQSAVDRWYHQSSSNLQASHAAFTAQLRQLQERLGLDPGAPTLSAHVDAMITPPRHMYLSDDNNSGSPPMASPPISRGQLNYDHLLDEVINKGASMPPFNPEEEAERRRRPNAESVRAPSTPPEDCNGPCQVLVEFKRKRVLQYESPYYVAPGEHVVVGGDRGEDIGLVTHSWRDAEAHQLGENRDKGVGKVLRVASVLEVTQLQGVQTELETRAVEVAQEKVQESGLPMRIVDAEYQFDRRKLTFYYQSMHRLDFRTLVRDLYKTFRARIWMEPDTSS | soluble |
| MEFTDPYTVDSLQCFNGFHYRGYRINQSDTDKVNRLIAIIRQEREKNIGPAAGDIIEYTCRNGDWFQSAHIEEICDGHFKICLSGSIPFCYESGDGVGYNVHEGIWTYPKRAALKPAGIREKQFRTWGHAGKCANGEVYFMACVRAWQYTEPEPLYGRYTTRNWSKYHINRQPDPEHDGEFFYMTEGFTLYSREELDRLTGILHGKLFDGIYSNSLVLWGYHMKWEILTEQEWNETKAEIHISFLGKSPVKIITCDDTHTITVYKKK | not soluble |
| MNKIAIQKPNIPENLQTADFHDAVTQDDVISMHLFEDCTICGEDIERLCVEKTVFRNVVFIDVSFRHIELTDVIFEKCDLSNADFSGAVIHRTSVKQSKMVGMNVAEATLRNVSFEECHGHFSSFSYSNMKQVRFDHCALMQSECSDTVLQQTHFDGCELEGASFTGTSLQNMDISTCRFEQLHVSLDKLKGCKIAPEHAIAFARALGAVIVLEHHHHHH | soluble |
| MGSDKIHHHHHHMRTVLYDEHAKLNAKFTEFNGWDMPLYYRSIIEEHMAVRKHVGIFDVSHMGDVTVSGKDASAFLDHMFPTKVSNLKNGECVYTAFLNDSGLMIDDTIVYRMGEDSYFFVPNAGTTEKIYRWVSDHSAGYSVKIENVSNRISSIALQGPESEEVLNELGFSYPGYFKFQYVSGKYMNAITGKDQIIISGTGYTGEKGVEFIIPNEHAVELWKKLLEAINKRNGLPAGLGARDTLRMEKGMLLSGHDFNEDRDPYEASVSFIVNNDEDFVGKKNLEIRRRSDHEIFRGFVLSDGIPRNGNPIKAGGKRVGTVTSGTISPVLNKGIALGYIDKAYSKENTEVMIEIRSVDHKAVVTKPRIVK | not soluble |
| MSLTELPKEFLEDIEEILKDEYDDFIKSYEESKTTGLRINTLKIDKKKLFDLELFDLNQIPWAEEGFYYDDKIDRPGRNPLHEAGAYYLQEPSAMSVIPKADIKEGEKVLDMCAAPGGKSTYILSKLNDTGLLVSNEINASRIKALGENLERFGARNCIITNTDSNSLRKTFNGYFDKVIIDAPCSGQGMFRKDEVAISDWSYAKVVECQSIQKEIIRDGYKMLKKDGILIYSTCTFSREENEHVINEFISEYPHAELIEMERLWPHKIKGEGHFVAKIKKLEEEECNVKELKIKNLDKEIKDYREFEKKFLKVDFYSNKKNKFYLRGENLYLLPEIYPDTKKLKVLRYGLHLGVLKKNRFEPSHALSHYLKVEDVKNVENFSVQSESILKYLKGDVVNSNDSRGWVLVSVEGIPLGWGKESSGVIKNHYPKGLRKVEGHHHHHH | soluble |
| MGHHHHHHHHHHSSGHIDDDDLHMDMHSGTFNPQDFAWQGLTLTPAAAIHIRELVAKQPGMVGVRLGVKQTGCAGFGYVLDSVSEPDKDDLLFEHDGAKLFVPLQAMPFIDGTEVDFVREGLNQIFKFHNPKAQNECGCGESFGV | soluble |
| MKHLLLASLLGSAMAMSSLVMAADTDLKTLEAAAKAEGAVNSLGMPDDWANWGGIWKDLETKYGLKHMDTDMSSAQEIAKFDAEKDNASGDIGDVGAAFGPIAVAKGVTQPYKPTTWEQIPDWAKDKDGHWALAYTGTIAFIVNKNLLHGSEIPKSWADLKTGKYKVSIGDVSTAAQATNGVLAAAIAMKGDESNIEPGLALFTDLAKQKRLSLANPTIQTIEKGEIEVGVVWDFNGLNYKAKMAKPDDYVVLIPSDGSVVSGYTTIINKYAKHPNAAKLAREYTFSDAGQINLAKGNARPIRVEHIKLPDDVKAQLLPHEQYLNAKPIKDADAWEKTSKALPQKWNEQVIIEMN | not soluble |
| MGSDKIHHHHHHMVQTVYKNSDQTVFEDAKALFQLNKNILLKGPTGSGKTKLAETLSNVMKLPMHQVNCSVDLDTESLLGFKTIHTNEEGHQEIVFIDGPVIKAMKEGHILYIDEINMAKPETLPILNGVLDYRRQLTNPYTGEVIKAAPGFNVIAAINEGYVGTLPMNEALKNRFIVIEVDYIDGDILKTVIKEQSKLQDEQLIQHIVKFNEDLRTMTKQGQISEEAASIRALIDLSDLATVMPIERAVQRTIIDKLEDEREQQAILNAIELNF | not soluble |
